A short description of the data set: protein stability index of a GFP-peptide fusion (GPS, HEK-293T) (PSI 1-6); higher = more stable. The conditions noted are these: c terminus: a fixed tail appended.

The text below walks through data of the supplement of paper PMC10567573.

± gives the standard deviation.
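Further: 24-mer peptide tiles fused after GFP, lentivirally expressed, FACS-sorted into six equal bins by GFP/DsRed ratio, decoded by Illumina sequencing, PSI is the read-weighted mean bin number.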

Turning to SAESSGCNSHMPYGYAAQARARER [KCNA4], the protein stability index reads like this: (treatment: DMSO) 4.43 ± 0.35; (treatment: MLN4924 1 uM, 8 h) 4.63 ± 0.2.

With LDGALRTFLKAFPLMGETQERERV [PSD2], the protein stability index by setting is: (treatment: DMSO) 2.96 ± 0.098; (treatment: MLN4924 1 uM, 8 h) 2.88 ± 0.25.

For LVVLRFLTMNSEDERRDAEERASL [KCNK9], the protein stability index was found to be 2.68 ± 0.15 (treatment: DMSO) and 2.62 ± 0.28 (treatment: MLN4924 1 uM, 8 h).

The sequence QSLAQPLPGNTTEATPRSLRASGS gave a protein stability index (treatment: DMSO) of 4.93 ± 0.33 and a protein stability index (treatment: MLN4924 1 uM, 8 h) of 5.13 ± 0.18.

For the sequence LSCLHSVCEQCLQILYESCPKYKF [RNF208], the protein stability index by setting is: (treatment: DMSO) 2.2 ± 0.25; (treatment: MLN4924 1 uM, 8 h) 2.35 ± 0.51.

VKMALDIEIATYRKLLEGEESRIS [PRPH] had a protein stability index (treatment: DMSO) of 2.61 ± 0.13 and a protein stability index (treatment: MLN4924 1 uM, 8 h) of 2.7 ± 0.39.

In the case of NYYRTWNVVVHDWLYYYAYKDFLW [SOAT1], the protein stability index runs as follows: (treatment: DMSO) 3.73 ± 0.5; (treatment: MLN4924 1 uM, 8 h) 2.94 ± 0.34.

GTDIVRGCDPLVKPVGRQACDLQP [ADAMTSL2]: the protein stability index is 4.08 ± 0.22 (treatment: DMSO) and 4.22 ± 0.059 (treatment: MLN4924 1 uM, 8 h).

PRARRRLGSGPDRELRKPEEPENG [PWWP2B]: the protein stability index was determined as 5.43 ± 0.14 (treatment: DMSO) and 5.42 ± 0.2 (treatment: MLN4924 1 uM, 8 h).

Consider IIELRRTVNALEIELQAQHSMRNS [KRT36], for which the protein stability index runs as follows: (treatment: DMSO) 2.38 ± 0.26; (treatment: MLN4924 1 uM, 8 h) 2.32 ± 0.33.

Regarding IVRLHDSISEEGFHYLVFDLVTGG [CAMK2B], the protein stability index is 2.85 ± 0.66 (treatment: DMSO) and 2.65 ± 0.52 (treatment: MLN4924 1 uM, 8 h).

Turning to PENLLLASKSKGAAVKLADFGLAI [CAMK2D], the protein stability index was 2.53 ± 0.38 (treatment: DMSO) and 2.13 ± 0.18 (treatment: MLN4924 1 uM, 8 h).

In the case of AATGGATLAQTISEAAIGGAMLGQ [HDAC6], the protein stability index (treatment: DMSO) is 4.1 ± 0.57 and the protein stability index (treatment: MLN4924 1 uM, 8 h) amounted to 4.11 ± 0.21.

For YQSKGYNDDYYEESYFTTRTYGEP [EMD], the protein stability index came out at 2.78 ± 0.2 (treatment: DMSO) and 3.22 ± 0.29 (treatment: MLN4924 1 uM, 8 h).

In the case of TIKLWKITERDKRPEGYNLKDEEG [PPP2R2C], the protein stability index was found to be 4.05 ± 0.25 (treatment: DMSO) and 4.03 ± 0.17 (treatment: MLN4924 1 uM, 8 h).

As for VWVLMDEDVRIFFYQSPYDSEQVP [NCF4], the protein stability index by setting is: (treatment: DMSO) 2.3 ± 0.71; (treatment: MLN4924 1 uM, 8 h) 2.33 ± 0.64.

Take RIIYMLLITIATFQIAANLSMERY [SLC19A2]: the protein stability index by setting is: (treatment: DMSO) 3.32 ± 0.31; (treatment: MLN4924 1 uM, 8 h) 2.91 ± 0.12.

For the sequence EPFSARVLVLCVFNSILPGVLILF [SOAT1], the protein stability index came to 3.05 ± 0.14 (treatment: DMSO) and 3.06 ± 0.22 (treatment: MLN4924 1 uM, 8 h).

Turning to FGKKEKGRLIQLSRDGATGHVLLT [PPFIA4], the protein stability index was found to be 2.71 ± 0.36 (treatment: DMSO) and 2.78 ± 0.2 (treatment: MLN4924 1 uM, 8 h).

As to SQQLQLIDEQDSYIQSRADTMQNI [STX5], the protein stability index turned out to be 4.59 ± 0.21 (treatment: DMSO) and 4.74 ± 0.26 (treatment: MLN4924 1 uM, 8 h).

Take RNQCRYCRLKKCFRAGMKKEAVQN [HNF4A]: the protein stability index reads like this: (treatment: DMSO) 2.9 ± 0.33; (treatment: MLN4924 1 uM, 8 h) 3.19 ± 0.45.

MLIFWTITLFLLGAAKGKEVCYED [PNLIPRP1]: the protein stability index is 3.72 ± 0.18 (treatment: DMSO) and 3.3 ± 0.69 (treatment: MLN4924 1 uM, 8 h).

Regarding VVPGDHLLEPEVADGGGAPPQGGC [KCNA3], the protein stability index is 5.37 ± 0.14 (treatment: DMSO) and 5.29 ± 0.12 (treatment: MLN4924 1 uM, 8 h).

Take GYGGGLGAGFGGGLGAGFGGGFAG [KRT16]: the protein stability index is, setting by setting: (treatment: DMSO) 2.65 ± 0.38; (treatment: MLN4924 1 uM, 8 h) 2.47 ± 0.28.

For the sequence GHMDDGGYSMNFNMSSSRGPLPVK [RBMX], the protein stability index (treatment: DMSO) came to 4.05 ± 0.21 and the protein stability index (treatment: MLN4924 1 uM, 8 h) turned out to be 3.95 ± 0.24.

Sequence FAAEARYPIYVIPEPPPVSFQPYH [TENT5D] yielded a protein stability index (treatment: DMSO) of 2.24 ± 0.22 and a protein stability index (treatment: MLN4924 1 uM, 8 h) of 2.26 ± 0.34.

On to HNAHQLAAWCLHHICTNYNSVCSK [RHOBTB1], for which the protein stability index reads like this: (treatment: DMSO) 2.85 ± 0.55; (treatment: MLN4924 1 uM, 8 h) 2.79 ± 0.59.

As for APGFGEDVPNRLVDNIDMIDGDGD [BEX5], the protein stability index runs as follows: (treatment: DMSO) 5.5 ± 0.23; (treatment: MLN4924 1 uM, 8 h) 5.59 ± 0.19.

LLLYRIRKDVGCNRFEVTLEKSNK [VPS39]: the protein stability index reads like this: (treatment: DMSO) 2.21 ± 0.35; (treatment: MLN4924 1 uM, 8 h) 2.14 ± 0.3.

As to AGIELIIEDDIRPEKQKRKPGLRR [MYBL2], the protein stability index is 3.63 ± 0.24 (treatment: DMSO) and 4.26 ± 0.43 (treatment: MLN4924 1 uM, 8 h).

As to IKVTSATSVNLGILTADLYSLFVG [SLC35F2], the protein stability index is, setting by setting: (treatment: DMSO) 3.07 ± 0.36; (treatment: MLN4924 1 uM, 8 h) 2.92 ± 0.42.

On to PQGSGFCLGQLNLEQRSESVRRTR [SMAD6], for which the protein stability index is, setting by setting: (treatment: DMSO) 4.39 ± 0.26; (treatment: MLN4924 1 uM, 8 h) 4.67 ± 0.43.

Consider GYAVNVFDIQQGFDNPQVRFFLGD [NSDHL], for which the protein stability index came out at 2.36 ± 0.38 (treatment: DMSO) and 2.57 ± 1.4 (treatment: MLN4924 1 uM, 8 h).

Turning to CGINANDVKKLEEAGFHTVEAVAY [RAD51], the protein stability index was 2.58 ± 0.25 (treatment: DMSO) and 2.47 ± 0.22 (treatment: MLN4924 1 uM, 8 h).

GASTSCLLPVQVVTEHPLELIRVE [PCDHGC5] returned a protein stability index (treatment: DMSO) of 3.12 ± 0.62 and a protein stability index (treatment: MLN4924 1 uM, 8 h) of 3.29 ± 0.37.

Take RMNDLHYLNLDTWEWNELIPQGIC [KLHDC2]: the protein stability index runs as follows: (treatment: DMSO) 2.3 ± 0.58; (treatment: MLN4924 1 uM, 8 h) 2.31 ± 0.24.

Regarding DALGMDPMMEHEMGGHHPGADYPV [CTNNB1], the protein stability index was found to be 4.51 ± 0.36 (treatment: DMSO) and 4.55 ± 0.16 (treatment: MLN4924 1 uM, 8 h).

Take SDTESTDLPSSTPVANSGTKPKTT [DLC1]: the protein stability index (treatment: DMSO) turned out to be 5.47 ± 0.26 and the protein stability index (treatment: MLN4924 1 uM, 8 h) was 5.49 ± 0.22.

Consider PYHVDSLLQLSDACRFQEDQEMAR [TCF25], for which the protein stability index is, setting by setting: (treatment: DMSO) 4.36 ± 0.17; (treatment: MLN4924 1 uM, 8 h) 4.04 ± 0.21.

Regarding ESALIALDSEKPKKLRFHPKQLYF [EHMT1], the protein stability index (treatment: DMSO) came to 2.38 ± 0.48 and the protein stability index (treatment: MLN4924 1 uM, 8 h) stood at 2.54 ± 0.19.

Turning to PLVTPPQSPVSPQPPAITQVHRQG [SMTNL2], the protein stability index by setting is: (treatment: DMSO) 4.56 ± 0.35; (treatment: MLN4924 1 uM, 8 h) 4.58 ± 0.053.

The sequence DGLREQLQAPVPPDSVPSLQNMGL [PBXIP1] gave a protein stability index (treatment: DMSO) of 4.45 ± 0.1 and a protein stability index (treatment: MLN4924 1 uM, 8 h) of 4.4 ± 0.15.

As for QMLWELVLLGEPLVVMAPSPSESS [DENND6A], the protein stability index is, setting by setting: (treatment: DMSO) 2.33 ± 0.72; (treatment: MLN4924 1 uM, 8 h) 2.17 ± 0.49.

Take EEYTTGMADCILVNSQFTAAVFKE [ALG2]: the protein stability index (treatment: DMSO) worked out at 3.21 ± 0.27 and the protein stability index (treatment: MLN4924 1 uM, 8 h) came to 3.26 ± 0.24.

Sequence SFMDGYKQKNAYIGTQGPLENTYR [PTPN9] yielded a protein stability index (treatment: DMSO) of 3.04 ± 0.16 and a protein stability index (treatment: MLN4924 1 uM, 8 h) of 2.92 ± 0.24.

EFNHTGELLATGDKGGRVVIFQRE [PPP2R2B]: the protein stability index (treatment: DMSO) worked out at 3.18 ± 0.24 and the protein stability index (treatment: MLN4924 1 uM, 8 h) was 3.19 ± 0.22.

In turn, SAGRSMPEASDQEEHLSPLDFLHS [RNF180] had a protein stability index (treatment: DMSO) of 5.07 ± 0.12 and a protein stability index (treatment: MLN4924 1 uM, 8 h) of 4.88 ± 0.28.

Turning to TALLSSGFSLEDPQTHSNRIYRMI [HSP90AB1], the protein stability index came out at 2.6 ± 0.36 (treatment: DMSO) and 2.56 ± 0.26 (treatment: MLN4924 1 uM, 8 h).

With RPTPQDWLHRRAQILEILRRRPWA [ADAMTS4], the protein stability index is 2.63 ± 0.13 (treatment: DMSO) and 3.1 ± 0.48 (treatment: MLN4924 1 uM, 8 h).

Take AVINDIANLPVPTIAAIDGLALGG [AUH]: the protein stability index stood at 2.79 ± 0.21 (treatment: DMSO) and 2.62 ± 0.23 (treatment: MLN4924 1 uM, 8 h).

Take RSSSESKLPSSGSGKRLSGVSSVD [RIPK4]: the protein stability index (treatment: DMSO) is 5.03 ± 0.19 and the protein stability index (treatment: MLN4924 1 uM, 8 h) was 5.07 ± 0.26.

Take ERPGAEGAPLLPPPLPPPSPPGSG [ACBD3]: the protein stability index runs as follows: (treatment: DMSO) 5.54 ± 0.24; (treatment: MLN4924 1 uM, 8 h) 5.47 ± 0.19.

Consider KKKPGTAMCVGCGSQIHDQFILRV [ISL2], for which the protein stability index runs as follows: (treatment: DMSO) 2.36 ± 0.37; (treatment: MLN4924 1 uM, 8 h) 2.23 ± 0.29.
